Data as given in patent publication US20150023971A1.

Tests used:
[1] = molecular target: T1, …; assay: SPOT length analysis, dot 4, HRP-S-protein detection
T1 sequence (peptide): RIFRSSDFAKNFVQ

[2] = molecular target: T2, …; assay: SPOT length analysis, dot 5, HRP-S-protein detection
T2 sequence (peptide): IFRSSDFAKNFVQT

[3] = molecular target: T3, sortilin peptide … on SPOT membrane; assay: SPOT length analysis, dot 1, anti-histidine detection
T3 sequence (peptide, C-terminus anchored to the cellulose membrane through a beta-alanine linker): RIFRSSDFAKNFVQTD

[4] = molecular target: T4, …; assay: SPOT length analysis, dot 15, HRP-S-protein detection
T4 sequence (peptide): SSDFAKNFVQTD

[5] = molecular target: T5, …; assay: SPOT length analysis, dot 20, HRP-S-protein detection
T5 sequence (peptide): SSDFAKNFVQT

[6] = molecular target: T6, …; assay: SPOT length analysis, dot 24, HRP-S-protein detection
T6 sequence (peptide): FRSSDFAKNF

[7] = molecular target: T7, …; assay: SPOT length analysis, dot 26, HRP-S-protein detection
T7 sequence (peptide): SSDFAKNFVQ

[8] = molecular target: T8, …; assay: SPOT length analysis, dot 28, HRP-S-protein detection
T8 sequence (peptide): DFAKNFVQTD

IFRSSDFA = molecular target: T9, IFRSSDFA; assay: SPOT length analysis, dot 38, HRP-S-protein detection
T9 sequence (peptide): IFRSSDFA

FRSSDFAK = molecular target: T10, FRSSDFAK; assay: SPOT length analysis, dot 39, HRP-S-protein detection
T10 sequence (peptide): FRSSDFAK

[9] = molecular target: T1, …; assay: SPOT length analysis, dot 4, anti-histidine detection
SSDFAKNF [10] = molecular target: T11, SSDFAKNF; assay: SPOT length analysis, dot 41, HRP-S-protein detection
T11 sequence (peptide): SSDFAKNF

DFAKNFVQ [11] = molecular target: T12, DFAKNFVQ; assay: SPOT length analysis, dot 43, HRP-S-protein detection
T12 sequence (peptide): DFAKNFVQ

FAKNFVQT [12] = molecular target: T13, FAKNFVQT; assay: SPOT length analysis, dot 44, HRP-S-protein detection
T13 sequence (peptide): FAKNFVQT

AKNFVQTD = molecular target: T14, AKNFVQTD; assay: SPOT length analysis, dot 45, HRP-S-protein detection
T14 sequence (peptide): AKNFVQTD

RSSDFAK [13] = molecular target: T15, RSSDFAK; assay: SPOT length analysis, dot 49, HRP-S-protein detection
T15 sequence (peptide): RSSDFAK

SDFAKNF = molecular target: T16, SDFAKNF; assay: SPOT length analysis, dot 51, HRP-S-protein detection
T16 sequence (peptide): SDFAKNF

RSSDFA [14] = molecular target: T17, RSSDFA; assay: SPOT length analysis, dot 59, HRP-S-protein detection
T17 sequence (peptide): RSSDFA

DFAKNF = molecular target: T18, DFAKNF; assay: SPOT length analysis, dot 62, HRP-S-protein detection
T18 sequence (peptide): DFAKNF

KNFVQ [15] = molecular target: T19, KNFVQ; assay: SPOT length analysis, dot 76, HRP-S-protein detection
T19 sequence (peptide): KNFVQ

[16] = molecular target: T20, …; assay: SPOT length analysis, dot 8, anti-histidine detection
T20 sequence (peptide): IFRSSDFAKNFVQ

IFRS [17] = molecular target: T21, IFRS; assay: SPOT length analysis, dot 80, HRP-S-protein detection
T21 sequence (peptide): IFRS

AKNF [18] = molecular target: T22, AKNF; assay: SPOT length analysis, dot 87, HRP-S-protein detection
T22 sequence (peptide): AKNF

[19] = molecular target: T23, …; assay: SPOT length analysis, dot 10, anti-histidine detection
T23 sequence (peptide): RSSDFAKNFVQTD

[20] = molecular target: T5, …; assay: SPOT length analysis, dot 20, anti-histidine detection
[21] = molecular target: T24, …; assay: SPOT length analysis, dot 23, anti-histidine detection
T24 sequence (peptide): IFRSSDFAKN

[22] = molecular target: T25, …; assay: SPOT length analysis, dot 29, anti-histidine detection
T25 sequence (peptide): RIFRSSDFA

[23] = molecular target: T26, …; assay: SPOT length analysis, dot 31, anti-histidine detection
T26 sequence (peptide): FRSSDFAKN

[24] = molecular target: T27, …; assay: SPOT length analysis, dot 34, anti-histidine detection
T27 sequence (peptide): SDFAKNFVQ

[25] = molecular target: T28, sortilin peptide … on SPOT membrane; assay: SPOT length analysis, dot 36, anti-histidine detection
T28 sequence (peptide, C-terminus anchored to the cellulose membrane through a beta-alanine linker): FAKNFVQTD

RSSDFAKN = molecular target: T29, RSSDFAKN; assay: SPOT length analysis, dot 40, anti-histidine detection
T29 sequence (peptide): RSSDFAKN

SSDFAKNF [26] = molecular target: T11, SSDFAKNF; assay: SPOT length analysis, dot 41, anti-histidine detection
SDFAKNFV = molecular target: T30, SDFAKNFV; assay: SPOT length analysis, dot 42, anti-histidine detection
T30 sequence (peptide): SDFAKNFV

DFAKNFVQ [27] = molecular target: T12, DFAKNFVQ; assay: SPOT length analysis, dot 43, anti-histidine detection
FAKNFVQT [28] = molecular target: T13, FAKNFVQT; assay: SPOT length analysis, dot 44, anti-histidine detection
RIFRSSD = molecular target: T31, RIFRSSD; assay: SPOT length analysis, dot 46, anti-histidine detection
T31 sequence (peptide): RIFRSSD

RSSDFAK [29] = molecular target: T15, RSSDFAK; assay: SPOT length analysis, dot 49, anti-histidine detection
SSDFAKN = molecular target: T32, SSDFAKN; assay: SPOT length analysis, dot 50, anti-histidine detection
T32 sequence (peptide): SSDFAKN

FAKNFVQ = molecular target: T33, FAKNFVQ; assay: SPOT length analysis, dot 53, anti-histidine detection
T33 sequence (peptide): FAKNFVQ

IFRSSD = molecular target: T34, IFRSSD; assay: SPOT length analysis, dot 57, anti-histidine detection
T34 sequence (peptide): IFRSSD

RSSDFA [30] = molecular target: T17, RSSDFA; assay: SPOT length analysis, dot 59, anti-histidine detection
AKNFVQ = molecular target: T35, AKNFVQ; assay: SPOT length analysis, dot 64, anti-histidine detection
T35 sequence (peptide): AKNFVQ

NFVQTD = molecular target: T36, NFVQTD; assay: SPOT length analysis, dot 66, anti-histidine detection
T36 sequence (peptide): NFVQTD

FRSSD = molecular target: T37, FRSSD; assay: SPOT length analysis, dot 69, anti-histidine detection
T37 sequence (peptide): FRSSD

SSDFA = molecular target: T38, SSDFA; assay: SPOT length analysis, dot 71, anti-histidine detection
T38 sequence (peptide): SSDFA

KNFVQ [31] = molecular target: T19, KNFVQ; assay: SPOT length analysis, dot 76, anti-histidine detection
FVQTD = molecular target: T39, FVQTD; assay: SPOT length analysis, dot 78, anti-histidine detection
T39 sequence (peptide): FVQTD

IFRS [32] = molecular target: T21, IFRS; assay: SPOT length analysis, dot 80, anti-histidine detection
AKNF [33] = molecular target: T22, AKNF; assay: SPOT length analysis, dot 87, anti-histidine detection

B1: recombinant his-S-tagged pro-domain of human BDNF (residues Ala1-Arg110), from pET-30 Xa/LIC, E. coli (protein, not shown: small tags and cut ends)
chain: APMKEANIRGQGGLAYPGVRTHGTLESVNGPKAGSGLTSLADTFEHVIEELLDEDQKVRPNEENNKDADLYTSRVMLSSQVPLEPPLLFLLEEYKNYLDAANMSMRVRR
[1]
  BLU Sprotein: 172000 BLU
[2]
  BLU Sprotein: 190000 BLU
[3]
  BLU His: 57000 BLU
[4]
  BLU Sprotein: 22400 BLU
[5]
  BLU Sprotein: 18400 BLU
[6]
  BLU Sprotein: 70400 BLU
[7]
  BLU Sprotein: 18500 BLU
[8]
  BLU Sprotein: 19000 BLU
IFRSSDFA
  BLU Sprotein: 24400 BLU
FRSSDFAK
  BLU Sprotein: 19200 BLU
[9]
  BLU His: 141000 BLU
SSDFAKNF [10]
  BLU Sprotein: 16300 BLU
DFAKNFVQ [11]
  BLU Sprotein: 14700 BLU
FAKNFVQT [12]
  BLU Sprotein: 23600 BLU
AKNFVQTD
  BLU Sprotein: 15300 BLU
RSSDFAK [13]
  BLU Sprotein: 16400 BLU
SDFAKNF
  BLU Sprotein: 17200 BLU
RSSDFA [14]
  BLU Sprotein: 15900 BLU
DFAKNF
  BLU Sprotein: 15200 BLU
KNFVQ [15]
  BLU Sprotein: 15700 BLU
[16]
  BLU His: 41600 BLU
IFRS [17]
  BLU Sprotein: 111000 BLU
AKNF [18]
  BLU Sprotein: 13700 BLU
[19]
  BLU His: 19800 BLU
[20]
  BLU His: 16700 BLU
[21]
  BLU His: 19700 BLU
[22]
  BLU His: 43400 BLU
[23]
  BLU His: 20400 BLU
[24]
  BLU His: 18400 BLU
[25]
  BLU His: 30800 BLU
RSSDFAKN
  BLU His: 18700 BLU
SSDFAKNF [26]
  BLU His: 15500 BLU
SDFAKNFV
  BLU His: 16300 BLU
DFAKNFVQ [27]
  BLU His: 15500 BLU
FAKNFVQT [28]
  BLU His: 80400 BLU
RIFRSSD
  BLU His: 20200 BLU
RSSDFAK [29]
  BLU His: 17300 BLU
SSDFAKN
  BLU His: 16700 BLU
FAKNFVQ
  BLU His: 69600 BLU
IFRSSD
  BLU His: 17900 BLU
RSSDFA [30]
  BLU His: 18300 BLU
AKNFVQ
  BLU His: 15600 BLU
NFVQTD
  BLU His: 15400 BLU
FRSSD
  BLU His: 15600 BLU
SSDFA
  BLU His: 15800 BLU
KNFVQ [31]
  BLU His: 18200 BLU
FVQTD
  BLU His: 22400 BLU
IFRS [32]
  BLU His: 51100 BLU
AKNF [33]
  BLU His: 14600 BLU
